Data published in the DeepSol protein solubility set.

Test: soluble on expression in E. coli; label from the status in PepcDB or PDB records

Sequence | soluble on expression in E. coli
MSLSLSSIIKNIPKAELHLHIEGSLTPELMWRLAEKHSVSLPYASVEEIEAAYNFEDLQSFLDLYYAGAGVLRDEDDFFALMWEYLTRCHEDNIVHTEIMFDPQTHTERDIGFDIFMPGFLKAMEKAKDEYGISSYLIMSFLRHLPEDAAFDTLSAAEPYYEHITAVGLDSSELGHPPSKFERVFKKAKALGFKIVAHAGEEGPASYIWEAIELLDVDRIDHGVRCQEDEALMDLLKERQIPLTVCPLSNLKLCVINDMKDHNIVQLLDAGLLVTVNSDDPTYFGGFLNDNFEALHQSLGIDEKTVRTLVANSFKASFLPQEQKNQLVEKVLSAEGHHHHHH | soluble
MGSDKIHHHHHHMTALFQQLPSVDKILKTPQGLQLITEFGHTAVVATCRELLTQARQFIKKNNQLPEYFSNFDRTFLEIHSHLQKQNQVQIKAVHNLTGTVLHTNLGRALWSEAAQQAALSAMQKNVSLEYDLDEGKRSHRDNYISELLCKLTGAEAACIVNNNAAAVLLMLATFAQGKEVIISRGELIEIGGAFRIPDIMEQAGCHLVEVGTTNRTHLKDYRNAITENTAFLMKVHSSNYQICGFTSSVSEEELTELGQEMNVPVVTDLGSGALVDLSQYGLPKEPTVQEKIAQGVDLVSFSGDKLLGGVQAGIIVGKKEWIEQLQAHPLKRVLRCDKVILAGLEATLRLYLNPEKLTEKLPTLRLLTQPLKQLKINAMRLKERLESRLNSQFELQIEASQAQIGSGSQPMERIPSVAVTIAEKTNAKLSALSARFKQLSQPIIGRMENGKIWLDLRSLADIETLLNTLDEL | not soluble
MSTILSLAPQNVWKHFYSLTQIPRPSGHMEKVTEFLINFGKGLGLESFVDEAGNVIIRKPATPGMENRKGVILQAHMDMVPQKNNDTVHDFEKDPIETYIDGDWVKAKGTTLGADNGLGVAAIMAVLEANDLKHGPLEALITKDEETGMYGAFGLKPGTVNGEILLNLDSEDEGELYIGCAGGMDVTATLEYKEVAPEEGDVAVKVSLKGLRGGHSGLEINEGRANANKLLVRFVREAVASYEARLVSWDGGNMRNAIPREACAVLAIPAENEEELLGLVKYCEDLFNEEFSAIETPISFTAERVELPAGEVPEEIQDNLIDAIFACQNGVTRMIPTVPDTVETSSNLAIITIGGGKAEIKILARSSSDSMKEYLTTSLESCFSMAGMKVEMTGGYSGWQPNVESPILHAMKESYKQQFGVEPAVKVIHAGLECGIIGAIIPGLDMISFGPTLRSPHSPDERALIPTVQKFYDFLVATLAQTPTKLEHHHHHH | soluble
MEFRKSPSPDGDRIELVAIYDHDERIDMNDLHRSLTGFRILTLRISATYDQDIERIAFLPTIDKLTFCKDLLNAYNFQRIIMQSYEGIKAIGSRRTRIKLNDLLAANISFPIFMNVILPDAQLNLFIKYLIAGSNHRLDGFLFAKTPNAADFNEAAIFKGVNYQPVGGREAYPEFRNIQFQLHPRTRVFYVTNNNGILATVYLDIGLRYRIDIFPAGLMSSFPLLRLPSNELTKVLRHMNPIAQLGFSLLSEKSKNRISLLRIFSDEVSISVCAYKRKEKLTLRLRNSLSSLEVHKCGPDLVIVLQNWSDCTKLDFRREMSLRHWIDHCMELATAKRIDELTLSSIKKKHKFGISLLSERLKNLICSLQVFTTDVEIILRRSIELKIVPLFLVIGQTGQIEISSFTHFFLDNFIWIRPQMSTRNWIDHCLELTNNHRLNKLIVEAGDNQEIDMDGFYRSLIGLHIKTLELKGTYSRSIQLFGSLSNVDTIVLDVELVQTTDYQRMVVLNHTKLVETRTNRVKFSLNDLLASNASFLQFTNLRIPDTQLNLFLKHWIAGSNQRQEGFSLTKEHDEQSYNQSVILKGIETRPAVRRSEHHKFDEIFTLPQYSRTLDITNCDGVEATVYFGKSWLFNLGPVTNLCCMLVWG | not soluble
MDSIIELRHLKTLLALEETGSVSLAAKRVFLTQSALSHQIRMLENHYGTPLFERKSTPLRFTPVGERLLRLAHELIPQVAVAEWDLARITEGEAGELRIAVECHTCFDWLMPAMGEFRPMWPQVELDIVSGFQADPVGLLLQHRADLAIVSEAEKQNGISFQPLFAYEMVGICAPDHPLAAKNVWTAEDFIGETLITYPVPDEMLDLPKKILIPKNINPPRRHSELTIAIIQLVASRRGIAALPYWTVMPYLEKGYVVHRQITADGLQSKLYAAIRTEDTDKSYLNNFCQIIRERGFADLPGLSELEPV | not soluble
MSSNFIVESCSVDSEEGVKLHTRIFKPRNEGEEVSDDENLVIVLVHPFSLLGGCQALLKGIASELASKGFKSVTFDTRGAGKSTGRATLTGFAEVKDVVAVCRWLCQNVDAHRILLVGSSAGAPIAGSAVEQVEQVVGYVSLGYPFGLMASILFGRHHKAILSSPKPKLFVMGTQDGFTSVSQLKKKLKSAVGRTETHLIEGVSHFQMEGPEYDSQVTDIICKFISSL | not soluble
MSLNDYSRQNFLDLNLFRGLGEDPAYHPPVLTDRPRDWPLDRWAEAPRDLGYSDFSPYQWRGLRMLKDPDTQAVYHDMLWELRPRTIVELGVYNGGSLAWFRDLTKIMGIDCQVIGIDRDLSRCQIPASDMENITLHQGDCSDLTTFEHLREMAHPLIFIDDAHANTFNIMKWAVDHLLEEGDYFIIEDMIPYWYRYAPQLLSEYLGAFRDVLSMDMLYANASSQLDRGVLRRVAAKQEGHHHHHH | soluble
MKNKKTLTKVALTTGLALTAVAPYGVGHAEETDQLQVQIQEESFRSGELTQPSQKAPENVVKDALKEKTEQALSPKQVNGETGVDYKVLQKRGSYDGTTLVRIQQTYEGKEVYGHQLTAHVDNSGVIKSVSGDSAQNLKQEELKKPINLSKDEATQYIYTKYGNDINFISEPEVKEVIFVDENNGQASNAYQVTFEAATPNYISGTYLINAQNGDMLKNMVQESNLKASEKLVGALKKSKKSSLTSLTGTGKDDLGISRSFGISKQSNGKYALADYTRGQGIETYDVNYRDITKEESYYPGTLATSTSTTFNDPKAVSAHYLATKVFDFYKDKYNRNSFDNQGQKVVSVVHAWDSGDTNDPKNWQNALSANNGSMLVYGDPIVKAYDVAGHEFTHAVTSSESNLEYYGESGAINEALSDIMGTSIEKYVNNGSFNWTMGEQTGSVFRDMENPTSVPSSLGVPYPDDYSEFNDFNGWDQGGVHFNSSIINKVAYLIAKGGTHNGVTVKGIGEDKMFDIFYYANTDELNMTSNFKELRSACIRVATNKYGANSAEVQAVQKAFDAAKIK | not soluble
MASNSSSCPTPGGGHLNGYPVPPYAFFFPPMLGGLSPPGALTTLQHQLPVSGYSTPSPATIETQSSSSEEIVPSPPSPPPLPRIYKPCFVCQDKSSGYHYGVSACEGCKGFFRRSIQKNMVYTCHRDKNCIINKVTRNRCQYCRLQKCFEVGMSKESVRNDRNKKKKEVPKPECSESYTLTPEVGELIEKVRKAHQETFPALCQLGKYTTNNSSEQRVSLDIDLWDKFSELSTKCIIKTVEFAKQLPGFTTLTIADQITLLKAACLDILILRICTRYTPEQDTMTFSDGLTLNRTQMHNAGFGPLTDLVFAFANQLLPLEMDDAETGLLSAICLICGDRQDLEQPDRVDMLQEPLLEALKVYVRKRRPSRPHMFPKMLMKITDLRSISAKGAERVITLKMEIPGSMPPLIQEMLENSEGLDTLSGQPGGGGRDGGGLAPPPGSCSPSLSPSSNRSSPATHSP | soluble
MRIFLLFLFFVLFTFGVEGYVIEEINGSTGLRIHKEIKRKVYITEDALITETEKEFMVQKIENGLPRIYRVIKSSKSYMDFSKMTPLFLVSLPFLDCKQRVCVVNRGAFRPTNEYKKIRGFKARKVVVESHALGKKTTLIQWYTKEWKELVEANRLEDKFYVNFIRAIMKEKNLSEANIPLKEIQNFLKEINEKFGGVVRTQQQMPLFNTYSEVISVKKTEIPDYIYKLPEGYTKIK | not soluble
MKSNPKYFLMNDVERQSKYSPKYVPNNSLKERILEFLDYYIAPLKLYLLSYPMPDCLWDNRKLRLKASGVQVTPSSEPVHIDDRLIHISQKQPSE | not soluble
MKFSTIFGATTVMTAVSAAAVSSVMTTKTITATNGNNVYTKVVTDTADPIISYSTTRTVVVSNSDATYTKVVTEGPDTTSEKSTTKTLTLTNGSGSSTNLYTKTVTQAVESSTSSSSSSSSSSSSASSSGAAPAAFQGASVGALALGLISYLL | soluble
MSLLLFQSLLRRGLLVAINFSPKVGEILECNFGNYPVSQNGPFSTTYYDGRIPPEMIKNRLVVVLNGKINGNAFIVVPLSTTRDHDKLKRGMHVEIASNVINDLQFFDQQIRWAKTDLVQQVSRNRLNRARTYRGYLNQCLPHELVADIQRAVIKSINAISLINEGHHHHHH | not soluble
HSQITLRGNAINTVGELPAVGSPAPAFTLTGGDLGVISSDQFRGKSVLLNIFPSVDTPVSATSVRTFDERAAASGATVLCVSKDLPFAQKRFCGAEGTENVMPASAFRDSFGEDYGVTIADGPMAGLLARAIVVIGADGNVAYTELVPEIAQEPNYEAALAALGA | soluble
MGNIIRIGMADLKASHHPAILTTLGLGSCVGIALYDRTTKIVGLAHAMLPDSSQVKNKTNAAKFVDTAIELLVKEMLSLGASKKRIVAKLAGGAQMFTFTQGAELMRIGQRNVAAAKSKLESLDIPVVSEDTGGNYGRTVELDSESGMLLIRTIGYGTKQI | not soluble
MNTMLFSPYTIRGLTLKNRIVMSPMCMYSCDTKDGAVRTWHKIHYPARAVGQVGLIIVEATGVTPQGRISERDLGIWSDDHIAGLRELVGLVKEHGAAIGIQLAHAGRKSQVPGEIIAPSAVPFDDSSPTPKEMTKADIEETVQAFQNGARRAKEAGFDVIEIHAAHGYLINEFLSPLSNRRQDEYGGSPENRYRFLGEVIDAVREVWDGPLFVRISASDYHPDGLTAKDYVPYAKRMKEQGVDLVDVSSGAIVPARMNVYPGYQVPFAELIRREADIPTGAVGLITSGWQAEEILQNGRADLVFLGRELLRNPYWPYAAARELGAKISAPVQYERGWRF | soluble
MGSDKIHHHHHHMTKPNQDAIGMLPFKQSTVSLQVQEHYKTPMLLLGYQQRWCADLTPVKVCEKSRRIGLSWGEAADSALFAASQKGMDTWYIGYNKDMAQEFIRDCADWAKAYGLAAGEIEETEEIFKEGDEEKAILAYVIRFSSGWRITALSSRPSNLRGKQGRVIIDEAAFHDDLPELLKAAMALLMWGGQVHIISTHNGVDNPFNELVNEVRAGKKPYSLHTITFDDAIKDGLYQRICLRLGRTWSQQAQDEWVAEIRASYGDAAAEELDCIPRNSGGAWLTRALIESRMNADTPRLCLEKKDEFALQPEPIRNREIAQWCDENLYPVLTALPEKQRHFLGMDFARSGDLSVIAIGQEQSDLCLKNVLLLELSNIPFAQQEQIYFYIGDRLPRFSKAANDARGNGQSLSEKAFDRYGAIVEGVMLSESWYREHTAPFKAALEDDTLFDIVKNDDVLADLRAFQVVKGIPRLPDKRTVGQNKTKRHGDAAIAYLLLHYAYRTDQSFEINFRSTGTRTTTQLFNNNSFERVRTGRGFGSIRGGNDFRGY | not soluble
MGSDKIHHHHHHCTHKYKIEGTSSVNGLDGKMLYLKTLRDGEWTKLDSAEVVHGSFSMKGKIDSVQMTTLYMDDESVMPVVLESGKIVITISNTDLKAVGTPLNTALYDFIAKKNAMEESIGELERKETRMVMDGADLEEVHEQLLAEGDSLMKAMNQYVKTFISDNYENVLGPNVFIMLCSSLPYPIMTPQIDDIIKDAPYSFKSNKMVREFLTKAKENMQLIEEHQRMQQNVGSKK | not soluble
MGSDKIHHHHHHMTVLIIGMGNIGKKLVELGNFEKIYAYDRISKDIPGVVRLDEFQVPSDVSTVVECASPEAVKEYSLQILKNPVNYIIISTSAFADEVFRERFFSELKNSPARVFFPSGAIGGLDVLSSIKDFVKNVRIETIKPPKSLGLDLKGKTVVFEGSVEEASKLFPRNINVASTIGLIVGFEKVKVTIVADPAMDHNIHIVRISSAIGNYEFKIENIPSPENPKTSMLTVYSILRTLRNLESKIIFG | soluble
